Experimental findings from US12384850 (SYSTIMMUNE, dated 2025) are described below.

The labels stand for the following.
B1: SI-35E21 (bispecific antibody, not shown: small tags and cut ends)
heavy (part 1 of 7): DIQMTQSPSTLSASVGDRVTITCQSSQSVYSNWFSWYQQKPGKAPKLLIYSASTLASGVPSRFSGSGSGTEFTLTISSLQPDDFATYYCAGGYNTVIDTFAFGGGTKVEIK
heavy (part 2 of 7): EVQLLESGGGLVQPGGSLRLSCAASGIDFSRRYYMCWVRQAPGKGLEWIACIYTGSRDTPHYASSAKGRFTISRDNSKNTLYLQMNSLRAEDTAVYYCAREGSLWGQGTLVTVSS
heavy (part 3 of 7): not shown
heavy (part 4 of 7): EVQLVESGGGLVQPGGSLRLSCTASGFSLSSYAMSWVRQAPGRGLEWIGIIYASGSTYYASSAKGRFTISKDNTKNTVDLQMNSLRAEDTAVYYCARIYDGMDLWGQGTLVTVSS
heavy (part 5 of 7): DIQMTQSPSSLSASVGDRVTINCQASQNIYSYLSWYQQKPGKVPKRLIYLASTLASGVPSRFSGSGSGTDYTLTISSLQPEDVATYYCQSNYNGNYGFGGGTKVEIK
heavy (part 6 of 7): EVQLVESGGGLVQPGGSLRLSCAASGFTISTNAMSWVRQAPGKGLEWIGVITGRDITYYASWAKGRFTISRDNSKNTLYLQMNSLRAEDTAVYYCARDGGSSAITSNNIWGQGTLVTVSS
heavy (part 7 of 7): DVVMTQSPSTLSASVGDRVTINCQASESISSWLAWYQQKPGKAPKLLIYEASKLASGVPSRFSGSGSGTEFTLTISSLQPDDFATYYCQGYFYFISRTYVNSFGGGTKVEIK
light: AYDMTQSPSSVSASVGDRVTIKCQASEDIYSFLAWYQQKPGKAPKLLIHSASSLASGVPSRFSGSGSGTDFTLTISSLQPEDFATYYCQQGYGKNNVDNAFGGGTKVEIKRTVAAPSVFIFPPSDEQLKSGTASVVCLLNNFYPREAKVQWKVDNALQSGNSQESVTEQDSKDSTYSLSSTLTLSKADYEKHKVYACEVTHQGLSSPVTKSFNRGEC
notes: Tetra-specific; the listing has only VHv3/VLv2
B2: SI-35E19 (bispecific antibody, not shown: small tags and cut ends)
heavy (part 1 of 7): ALVMTQSPSTLSASVGDRVTINCQASEDIDTYLAWYQQKPGKAPKLLIFYASDLASGVPSRFSGSGSGTEFTLTISSLQPDDFATYYCQGGYYTSSADTRGAFGGGTKVEIK
heavy (part 2 of 7): QSLVESGGGLVQPGGSLRLSCAASGFSFSSNYWICWVRQAPGKGLEWIACIYVGSSGDTYYASSAKGRFTISRDNSKNTLYLQMNSLRAEDTAVYYCARDSSSYYMFNLWGQGTLVTVSS
heavy (part 3 of 7): not shown
heavy (part 4 of 7): EVQLLESGGGLVQPGGSLRLSCAASGFTISRYHMTWVRQAPGKGLEWIGHIYVNNDDTDYASSAKGRFTISRDNSKNTLYLQMNSLRAEDTATYFCARLDVGGGGAYIGDIWGQGTLVTVSS
heavy (part 5 of 7): DIQMTQSPSSLSASVGDRVTITCQSSQSVYNNNDLAWYQQKPGKVPKLLIYYASTLASGVPSRFSGSGSGTDFTLTISSLQPEDVATYYCAGGYDTDGLDTFAFGGGTKVEIK
heavy (part 6 of 7): B1 heavy (part 6 of 7)
heavy (part 7 of 7): B1 heavy (part 7 of 7)
light: B1 light
notes: as for B1
B3: SI-35E24 (bispecific antibody, not shown: small tags and cut ends)
heavy (part 1 of 7): B1 heavy (part 1 of 7)
heavy (part 2 of 7): B1 heavy (part 2 of 7)
heavy (part 3 of 7): not shown
heavy (part 4 of 7): EVQLVESGGGLVQPGGSLRLSCAASGFSLNNYWMSWVRQAPGKGLEWIGTISSGAYTWFATWATGRFTISRDNSKNTLYLQMNSLRAEDTAVYYCARYSSTTDWTYFNIWGQGTLVTVSS
heavy (part 5 of 7): DIQMTQSPSTLSASVGDRVTITCQASQSINNYLAWYQQKPGKAPKLLIYRASTLESGVPSRFSGSGSGTEFTLTISSLQPDDFATYYCQSYNGVGRTAFGGGTKVEIK
heavy (part 6 of 7): B1 heavy (part 6 of 7)
heavy (part 7 of 7): B1 heavy (part 7 of 7)
light: B1 light
notes: Tetra-specific; the listing has only VHv3/VLv2; also called SI-3524
B4: SI-35E26 (bispecific antibody, not shown: small tags and cut ends)
heavy (part 1 of 7): DVVMTQSPSSVSASVGDRVTITCQASQNIRTYLSWYQQKPGKAPKLLIYAAANLASGVPSRFSGSGSGTDFTLTISDLEPGDAATYYCQSTYLGTDYVGGAFGGGTKVEIK
heavy (part 2 of 7): RSLVESGGGLVQPGGSLRLSCTASGFTISSYHMQWVRQAPGKGLEYIGTISSGGNVYYASSARGRFTISRPSSKNTVDLQMNSLRAEDTAVYYCARDSGYSDPMWGQGTLVTVSS
heavy (part 3 of 7): not shown
heavy (part 4 of 7): B3 heavy (part 4 of 7)
heavy (part 5 of 7): B3 heavy (part 5 of 7)
heavy (part 6 of 7): B1 heavy (part 6 of 7)
heavy (part 7 of 7): B1 heavy (part 7 of 7)
light: B1 light
notes: as for B1
B5: SI-35E23 (bispecific antibody, not shown: small tags and cut ends)
heavy (part 1 of 7): B4 heavy (part 1 of 7)
heavy (part 2 of 7): B4 heavy (part 2 of 7)
heavy (part 3 of 7): not shown
heavy (part 4 of 7): B1 heavy (part 4 of 7)
heavy (part 5 of 7): B1 heavy (part 5 of 7)
heavy (part 6 of 7): B1 heavy (part 6 of 7)
heavy (part 7 of 7): B1 heavy (part 7 of 7)
light: B1 light
notes: as for B1
B6: SI-35E22 (bispecific antibody, not shown: small tags and cut ends)
heavy (part 1 of 7): B2 heavy (part 1 of 7)
heavy (part 2 of 7): B2 heavy (part 2 of 7)
heavy (part 3 of 7): not shown
heavy (part 4 of 7): B1 heavy (part 4 of 7)
heavy (part 5 of 7): B1 heavy (part 5 of 7)
heavy (part 6 of 7): B1 heavy (part 6 of 7)
heavy (part 7 of 7): B1 heavy (part 7 of 7)
light: B1 light
notes: as for B1
B7: SI-35E20 (bispecific antibody, not shown: small tags and cut ends)
heavy (part 1 of 7): B4 heavy (part 1 of 7)
heavy (part 2 of 7): B4 heavy (part 2 of 7)
heavy (part 3 of 7): not shown
heavy (part 4 of 7): B2 heavy (part 4 of 7)
heavy (part 5 of 7): B2 heavy (part 5 of 7)
heavy (part 6 of 7): B1 heavy (part 6 of 7)
heavy (part 7 of 7): B1 heavy (part 7 of 7)
light: B1 light
notes: as for B1
B8: SI-35E25 (bispecific antibody, not shown: small tags and cut ends)
heavy (part 1 of 7): B2 heavy (part 1 of 7)
heavy (part 2 of 7): B2 heavy (part 2 of 7)
heavy (part 3 of 7): not shown
heavy (part 4 of 7): B3 heavy (part 4 of 7)
heavy (part 5 of 7): B3 heavy (part 5 of 7)
heavy (part 6 of 7): B1 heavy (part 6 of 7)
heavy (part 7 of 7): B1 heavy (part 7 of 7)
light: B1 light
notes: as for B1

T2 sequence (Q9NZQ7 19-290): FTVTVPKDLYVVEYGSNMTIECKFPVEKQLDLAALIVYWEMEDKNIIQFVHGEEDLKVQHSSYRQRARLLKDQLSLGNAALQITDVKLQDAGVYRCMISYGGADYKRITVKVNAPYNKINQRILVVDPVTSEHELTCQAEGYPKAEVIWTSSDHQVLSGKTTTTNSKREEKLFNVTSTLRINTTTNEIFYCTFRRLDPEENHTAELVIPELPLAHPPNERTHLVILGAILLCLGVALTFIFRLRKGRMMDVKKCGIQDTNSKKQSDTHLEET
T1 sequence (Q07011 24-255): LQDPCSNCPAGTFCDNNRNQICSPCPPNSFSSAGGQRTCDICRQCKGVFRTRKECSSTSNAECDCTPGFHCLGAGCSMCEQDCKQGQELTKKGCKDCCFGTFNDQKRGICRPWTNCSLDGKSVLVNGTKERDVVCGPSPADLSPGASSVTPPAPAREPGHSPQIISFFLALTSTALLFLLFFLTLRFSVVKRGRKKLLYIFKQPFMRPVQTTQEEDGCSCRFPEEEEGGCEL

The first assay concerns the target T1, human 41BB (human, UniProt Q07011 24-255).
T1 construct: whole, on cells; also called 41BB expressing CHO cells; human 41BB transfected CHO cells
Nature of the assay: FACS on human 41BB transfected CHO cells. As to the method:
(§1) Example 2: FACS Analysis of Tetra-Specific GNC Antibody Binding to Human 41BB Transfected CHO Cells The tetra-specific GNC antibodies listed in TABLEs 3 and 4 were tested for binding to Chinese hamster ovary cells (CHO) cells stably expressing a full-length human ROR1. Antibodies were prepared at 2× final concentration and titrated 1:5 across 3 wells of a 96 well plate in 50 ul of PBS/2% FBS and then 5,000 ROR1-CHO cells in 50 ul PBS/2% FBS were added. This mixture was incubated for 30 minutes on ice, washed once with 200 ul PBS/2% FBS, and then the secondary antibody PE Goat anti-Human IgG Fc at 1:1000 dilution of stock was added, and this mixture was incubated for 30 minutes on ice. Cells were washed 2×200 ul PBS/2% FBS, resuspended in 50 ul PBS/2% FBS and analyzed on a BD LSRFORTESSA and the binding profile is shown in FIG. 5. All of the tetra-specific GNC antibodies except for the control SI-27E12 contain a 41BB binding domain, 460C3, 420H5, or 466F6 and bound to 41BB expressing CHO cells with varying intensity.
As to B1, the binding result is given as “binds”.

Take B2: the binding result is “binds”.

In the case of B3, the binding result is “binds”.

For B4, the binding result is “binds”.

Consider B5, for which the binding result is reported as “binds”.

With B6, the binding result is recorded as “binds”.

With B7, the binding result is given as “binds”.

With B8, the binding result is reported as “binds”.

Another assay concerns the target T2, human PD-L1 (human, UniProt Q9NZQ7 19-290).
T2 construct: whole, on cells; also called PDL1 expressing CHO cells; human PD-L1 transfected CHO cells
Nature of the assay: FACS on human PD-L1 transfected CHO cells. The protocol:
as §1, with “3:” for “2:”, “PDL1” for “41BB”, “[…]” for “a full-length”, “6.” for “5. All of the tetra-specific GNC antibodies except for the control SI-27E12 contain a 41BB binding domain, 460C3, 420H5, or 466F6 and bound to 41BB expressing CHO cells with varying intensity.”
Consider B1, for which the binding result is reported as “binds”.

On to B2, for which the binding result was “binds”.

In the case of B3, the binding result was “binds”.

As to B4, the binding result is “binds”.

Regarding B5, the binding result is “binds”.

Take B6: the binding result is “binds”.

B7: the binding result is “binds”.

Consider B8, for which the binding result is “binds”.

The target of the next assay is T3, full-length human ROR1 (human, UniProt Q01973 30-937).
T3 construct: whole, on cells; also called human ROR1 transfected CHO cells; ROR1-CHO cells
T3 sequence (Q01973 30-937): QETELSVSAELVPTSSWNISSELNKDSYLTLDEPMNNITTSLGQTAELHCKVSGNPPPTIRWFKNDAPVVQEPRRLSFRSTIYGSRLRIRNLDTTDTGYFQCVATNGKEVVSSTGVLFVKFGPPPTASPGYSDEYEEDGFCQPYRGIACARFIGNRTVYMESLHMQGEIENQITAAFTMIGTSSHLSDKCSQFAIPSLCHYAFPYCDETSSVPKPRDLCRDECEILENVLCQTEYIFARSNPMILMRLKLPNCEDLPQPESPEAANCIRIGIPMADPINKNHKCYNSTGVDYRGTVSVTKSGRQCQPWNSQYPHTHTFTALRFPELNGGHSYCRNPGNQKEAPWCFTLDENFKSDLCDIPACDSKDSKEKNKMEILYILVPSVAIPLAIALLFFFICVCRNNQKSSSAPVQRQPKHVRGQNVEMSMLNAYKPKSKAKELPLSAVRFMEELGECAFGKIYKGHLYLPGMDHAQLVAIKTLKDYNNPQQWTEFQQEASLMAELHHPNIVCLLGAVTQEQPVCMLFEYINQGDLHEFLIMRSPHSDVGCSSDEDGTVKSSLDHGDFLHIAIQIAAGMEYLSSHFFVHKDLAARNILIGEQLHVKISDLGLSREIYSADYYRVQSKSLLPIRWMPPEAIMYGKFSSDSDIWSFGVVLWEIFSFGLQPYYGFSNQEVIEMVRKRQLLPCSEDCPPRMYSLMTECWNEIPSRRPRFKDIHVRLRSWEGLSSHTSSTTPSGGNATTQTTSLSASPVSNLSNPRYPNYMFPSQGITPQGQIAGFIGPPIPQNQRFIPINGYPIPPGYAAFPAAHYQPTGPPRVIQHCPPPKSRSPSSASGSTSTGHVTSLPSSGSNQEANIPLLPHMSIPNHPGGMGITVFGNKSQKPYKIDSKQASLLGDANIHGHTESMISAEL
Nature of the assay: FACS on CHO cells stably expressing full-length human ROR1. The protocol: as §1, with “Example 1:” for “Example 2:”, “Tetra-Specific Specific” for “Tetra-Specific GNC”, “Human ROR1” for “Human 41BB”, “FIG. 4.” for “FIG. 5. All of the tetra-specific GNC antibodies except for the control SI-27E12 contain a 41BB binding domain, 460C3, 420H5, or 466F6 and bound to 41BB expressing CHO cells with varying intensity.”
Consider B1, for which the binding result is on record as “binds”.

For the molecule B2, the binding result was “binds”.

Regarding B3, the binding result is “no binding”.

For B4, the binding result was “no binding”.

As to B5, the binding result is reported as “binds”.

For B6, the binding result is given as “binds”.

For B7, the binding result is “binds”.

Regarding B8, the binding result is “no binding”.
